No end group written: not given here. Where only a bound is given, the exact number is not on record here.

The target of one assay is PC4CTD (Homo sapiens, UniProt P53999). Briefly: Fluorescence titration of p53TAD peptides. As to conditions: in words. The class given is binding.
In assay [1] the target is mutation of single hydrophobic residues to alanine (p53N peptides).
The target of assay [2] is QS2 W53Q/F54S p53N-(35–57) (UniProt P04637). Nature of the assay: fluorescence polarisation. A general note: Fluorescence polarisation rises when a labelled molecule tumbles more slowly, as on binding a larger partner.
Assay [3] addresses hDp53N-(10–57)-aspartic acid mimic (UniProt P04637). Nature of the assay: fluorescence polarisation.
Assay [4] relates to N-terminal domain of MDM2. As to conditions: cited from earlier work.
Another assay has as its system subdomains of p300. As to conditions: cited from earlier work.

In the case of “D41K/D42K/D48K/D49K/E51K p53N-(35–57) (LPSQAMKKLMLSPKKIKQWFTED-{K(methoxycoumarin)})”, in the assay with PC4CTD, the “quantifiability of binding to PC4CTD” value is given as “no quantifiable binding”.
As to “PC4 C-terminal DNA-binding domain, PC4CTD-(61–127) (from UniProt P53999 61-127) (domain or fragment)”, the Kd (as a rule, the constant that tells how readily two partners part at equilibrium) is 14 to 16 µM in assay [1], 20 µM in assay [2] and 5 µM in assay [3].
With “TAD1: p53 transactivation subdomain TAD1-(1–40)”, the “interaction with N-terminal domain of MDM2” value in assay [4] is on record as “very tight”. The “binding to p300 subdomains” value with subdomains of p300 is “bind only weakly”.
“p53 N-terminal transactivation domain, TAD-(1–93) (from UniProt P04637 1-93) (domain or fragment)” showed a Kd with p53 DNA-binding domain of over 100 µM.

Values taken from article PMC2755895 (The Journal of Biological Chemistry, 2009).
